Test results from patent US20050032185A1.

Assays:
[1] = target: HA-PKBα (haemagglutinin epitope-tagged human PKBα expressed in 293 cells) (human) (UniProt P31749); assay: cell-based or functional assay
[2] = target: GST-PKBα (full length human protein kinase Bα with N-terminal glutathione S-transferase, from unstimulated 293 cells) (human) [GST: P08515]; assay: cell-based or functional assay
Chain of GST-PKBα (full length human protein kinase Bα with N-terminal glutathione S-transferase, from unstimulated 293 cells) (human) [GST: P08515] (P08515 1-218, tags or fused parts left off): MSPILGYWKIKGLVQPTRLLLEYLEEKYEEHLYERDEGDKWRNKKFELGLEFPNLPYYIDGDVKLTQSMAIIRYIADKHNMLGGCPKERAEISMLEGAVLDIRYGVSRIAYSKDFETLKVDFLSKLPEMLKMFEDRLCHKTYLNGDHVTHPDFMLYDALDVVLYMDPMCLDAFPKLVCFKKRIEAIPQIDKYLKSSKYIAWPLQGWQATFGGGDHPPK

Chain of HA-PKBα (haemagglutinin epitope-tagged human PKBα expressed in 293 cells) (human) (P31749 whole entry): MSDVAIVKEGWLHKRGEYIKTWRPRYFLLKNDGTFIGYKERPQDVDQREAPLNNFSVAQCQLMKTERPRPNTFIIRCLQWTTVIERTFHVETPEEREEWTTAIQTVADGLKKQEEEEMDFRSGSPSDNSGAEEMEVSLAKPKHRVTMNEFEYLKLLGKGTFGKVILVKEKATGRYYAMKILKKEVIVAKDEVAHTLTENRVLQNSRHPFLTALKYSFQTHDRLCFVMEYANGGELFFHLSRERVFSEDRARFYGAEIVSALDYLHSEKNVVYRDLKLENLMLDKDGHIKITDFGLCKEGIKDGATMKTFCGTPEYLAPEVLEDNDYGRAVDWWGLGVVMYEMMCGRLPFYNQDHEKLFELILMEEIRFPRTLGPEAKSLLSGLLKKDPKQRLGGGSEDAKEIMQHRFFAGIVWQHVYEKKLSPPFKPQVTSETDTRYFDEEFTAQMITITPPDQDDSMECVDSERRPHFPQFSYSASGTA

| Thr308 phosphorylation of HA-PKBα in unstimulated cotransfected 293 cells, relative to IGF1-stimulated cells with HA-PKBα alone [1] [%] | activity of HA-PKBα immunoprecipitated from cotransfected 293 cells after IGF-1 [1] [fold] | activity of HA-PKBα immunoprecipitated from cotransfected, unstimulated 293 cells [1] [fold] | further increase of Thr308 phosphorylation of HA-PKBα in cotransfected cells in response to IGF1 [1] [fold] | fold activation with sn-1,2-dipalmitoyl D-PtdIns(3,4,5)P3 [2] [fold] | fold activation with sn-1-stearoyl, 2-arachidonyl D-PtdIns(3,4,5)P3 (lipid 1) [2] [fold] | fold activation with sn-2-arachidonyl, 3-stearoyl D-PtdIns(3,4,5)P3 [2] [fold] | fold activation with sn-2-arachidonyl, 3-stearoyl L-PtdIns(3,4,5)P3 [2] [fold] | fold activation with the L-enantiomer of sn-1-stearoyl, 2-arachidonyl PtdIns(3,4,5)P3 [2] [fold] | Substance |
| --- | --- | --- | --- | --- | --- | --- | --- | --- | --- |
| 70 | 70 | 20 | 4 |  |  |  |  |  | Myc-PDK1 (N-terminal Myc epitope-tagged human PDK1, residues 52-556, expressed in 293 cells) (from UniProt O15530 52-556) (enzyme) |
|  |  |  |  | 5.5 | 13 | 16 | 2.3 | 1.7 | PtdIns(3,4,5)P3-dependent protein kinase-1 (PDK1) purified from rabbit skeletal muscle (enzyme) |
